± gives the uncertainty stated by the source.
B1: Advillin, residues 785 to 819; numbered along this chain, O75366 (parent)
chain: LSEQDFVSVFGITRGQFAALPGWKQLQMKKEKGLF
B2: Receptor-interacting serine/threonine-protein kinase 2, residues 438 to 518; numbered along this chain, O43353 (parent)
chain: QWIQSKREDIVNQMTEACLNQSLDALLSRDLIMKEDYELVSTKPTRTSKVRQLLDTTDIQGEEFAKVIVQKLKDNKQMGLQ

Variants of: B1
Assay: abundance fitness (aPCA) (normalised: wild type 0, dead -1); higher = more abundant; growth selection in yeast, the domain comes from the species named
Conditions: Homo sapiens

Variant	abundance fitness
D5G	-0.188 ± 0.068
D5K	-0.146 ± 0.075
D5R	-0.188 ± 0.068
D5C	-1.17 ± 0.25

Variants of: B2
Assay: as above
Conditions: Homo sapiens

Variant	abundance fitness
N12A	0.073 ± 0.093
N12P	-0.978 ± 0.23
D9E	-0.317 ± 0.15
D9I	0.255 ± 0.16
R7P	-0.956 ± 0.14
R7F	-0.027 ± 0.17
V67H	-0.396 ± 0.19
V67A	-0.674 ± 0.077
T47W	-0.333 ± 0.087
T47C	-0.254 ± 0.11
T15H	-1.13 ± 0.35
T15D	-0.152 ± 0.11
I32P	-0.437 ± 0.071
M33Q	0.145 ± 0.11
M33K	-0.088 ± 0.17
M33T	0.247 ± 0.095
K71R	-0.612 ± 0.05
K71W	-1.09 ± 0.34
T45Q	-0.652 ± 0.1
T45I	-0.87 ± 0.21
T45D	0.029 ± 0.14
R46W	-0.796 ± 0.072
R46H	-0.012 ± 0.11
L53A	-0.396 ± 0.072

Variant	abundance fitness
L53M	-0.517 ± 0.18
L53R	-0.643 ± 0.066
Y37I	-0.401 ± 0.27
Y37N	-0.401 ± 0.14
R51P	-0.501 ± 0.064
R51D	-0.517 ± 0.092
R51T	-0.255 ± 0.08
W2D	-0.232 ± 0.31
K76L	-0.125 ± 0.086
K76P	-0.314 ± 0.15
K76G	0.066 ± 0.057
K76Q	-0.032 ± 0.085
K6F	0.095 ± 0.44
I59Y	-0.342 ± 0.29
I59G	0.143 ± 0.29
I59K	0.17 ± 0.26
A17E	0.182 ± 0.11
A17C	-0.107 ± 0.074
C18M	-0.264 ± 0.23
C18R	-0.559 ± 0.071
S28H	-0.25 ± 0.12
S28F	-0.665 ± 0.29
M78I	-0.372 ± 0.5
Q60L	-0.321 ± 0.055

Variant	abundance fitness
V50G	-0.679 ± 0.071
V50R	-0.802 ± 0.079
V50Q	-0.612 ± 0.1
P44A	-0.181 ± 0.079
P44Q	-0.169 ± 0.11
T57F	-0.392 ± 0.12
T57N	-0.684 ± 0.37
T57C	0.125 ± 0.11
T57P	-0.04 ± 0.05
E63H	-0.734 ± 0.18
D36C	-0.839 ± 0.23
D36T	-0.244 ± 0.11
D36W	-1.04 ± 0.16
S41K	0.158 ± 0.12
S41P	-0.599 ± 0.085
S41D	-0.448 ± 0.098
S41Y	-0.117 ± 0.11
E38I	0.053 ± 0.15
E38F	-0.221 ± 0.11
E38C	-0.719 ± 0.13
S22V	0.1 ± 0.069
D24V	-0.434 ± 0.1
D24T	-0.28 ± 0.045
D55L	-0.132 ± 0.055

Variant	abundance fitness
D55W	-0.475 ± 0.064
D55S	-0.153 ± 0.055
Q4T	0.458 ± 0.5
Q4A	-0.078 ± 0.12
Q4G	-0.685 ± 0.13
L26G	-0.572 ± 0.081
L26K	-0.374 ± 0.15
V69D	-0.27 ± 0.2
K43F	-0.466 ± 0.14
K43P	-0.695 ± 0.25
K43C	-0.219 ± 0.22
E35R	-0.043 ± 0.073
E35G	-0.256 ± 0.07
E35A	-0.223 ± 0.085
E35T	-0.118 ± 0.12
E35K	0.024 ± 0.089
E35H	0.055 ± 0.17
I68V	-0.147 ± 0.091
I68A	-0.367 ± 0.081
Q21E	-0.096 ± 0.1
Q21W	-1.07 ± 0.2
Q21P	-0.793 ± 0.1
Q21M	-0.736 ± 0.19
Q21T	-0.344 ± 0.08

Variant	abundance fitness
E62S	-0.627 ± 0.055
E62T	-0.629 ± 0.081
E62K	-0.798 ± 0.16
N75R	-0.62 ± 0.045
N75M	-0.162 ± 0.12
E16L	-0.288 ± 0.072
E16S	-0.272 ± 0.061
E16I	-0.319 ± 0.11
E16R	-0.793 ± 0.082
D58A	0.021 ± 0.053
D58E	0.107 ± 0.1
T56F	0.037 ± 0.12
T56A	-0.161 ± 0.06
T56C	-0.105 ± 0.13
L31M	-0.204 ± 0.13
L31G	-0.798 ± 0.087
L31S	-0.608 ± 0.048
L31I	-0.973 ± 0.45
S5P	-0.623 ± 0.15
S5W	-0.639 ± 0.46
L19I	0.024 ± 0.18
V11W	-1.03 ± 0.21
V11Q	-0.776 ± 0.21
K66M	-0.192 ± 0.14

Variant	abundance fitness
K66T	-0.187 ± 0.13
K66G	-0.182 ± 0.042
K66H	-0.459 ± 0.12
D30M	-0.814 ± 0.16
D30W	-1.12 ± 0.24
D30H	0.045 ± 0.11
A25S	-0.233 ± 0.057
K73H	-0.319 ± 0.17
K73M	-0.107 ± 0.093
K73D	-0.269 ± 0.13
L39I	-0.352 ± 0.11
L39Y	-0.407 ± 0.23
I10K	-0.619 ± 0.16
I10S	-0.618 ± 0.098
I10L	-0.264 ± 0.087
I10T	-0.697 ± 0.15
I10A	-1.04 ± 0.31
K49C	-0.81 ± 0.33
K49A	-0.586 ± 0.16
K49P	-0.625 ± 0.13
K49Q	-0.786 ± 0.21
Q13R	-0.527 ± 0.18
Q13F	-0.314 ± 0.45
Q13V	-0.199 ± 0.23

Variant	abundance fitness
F64T	-0.142 ± 0.079
E8A	-0.367 ± 0.076
E8P	-0.527 ± 0.066
E8M	-0.272 ± 0.16
S48M	-0.142 ± 0.16
S48V	-0.534 ± 0.11
Q52W	-0.011 ± 0.058
Q52E	-0.512 ± 0.089
T42F	-0.243 ± 0.086
T42V	-0.415 ± 0.061
G61L	-0.531 ± 0.089
G61N	-0.055 ± 0.16
D74M	-0.399 ± 0.11
D74A	-0.076 ± 0.07
D74F	-0.486 ± 0.14
A65P	-0.554 ± 0.062
A65C	-0.624 ± 0.12
R29M	-0.076 ± 0.1
R29S	-0.297 ± 0.07

— the Human Domainome abundance scans (Beltran et al. 2025)
